The values below are quoted from earlier work in paper PMC9659328.

Usually Kd stands for the constant that tells how readily two partners part at equilibrium.

This data set addresses thrombin (Homo sapiens) (UniProt P00734).

Take thrombomodulin (from UniProt P07204): the Kd is 2 nM.
